According to the DeepSol protein solubility set:

Assay: soluble on expression in E. coli; label from the status in PepcDB or PDB records

| Sequence | soluble on expression in E. coli |
| --- | --- |
| MSLSIAISNAIIVTQNDNRDVYRGNVKIDGNKIQYVGKDEVDGDILIDGTNKVLMPGLINTHAHVGMSASKGLFDDVDLDSFLKKTFEYDSDRTSTGIFNSAKLGMYEMIGNGITAFVDLYYSEDIIAKAAEEIGIRAFLSWVTLDKELTTQIGDPVENAENFIRNHVGNKYVVPSVGVQGIYVANDDTFRRAMDLAEKYGTILHMHLSETRKEVYDAVKKLGERPIEHLHNIGILNKRVLAAHCVWATYHEVRLLSKDGVNVSWNSISNFKLGTGGIPPIPEMMRENVNVTIGTDSNGSNNSLDMFQAMKFSAISVKNYRWDASLMKAQEILDMATRNAARALQLNAGSIEVGKLADVVLLDATIPSMIPTNEANAVSNIVYSSSPQNVDTVIIDGEIKKINGKILGFHSNKFTNSEFKEGHHHHHH | not soluble |
| MGAVVVKDLRKRIGKKEILKGISFEIEEGEIFGLIGPNGAGKTTTLRIISTLIKPSSGIVTVFGKNVVEEPHEVRKLISYLPEEAGAYRNMQGIEYLRFVAGFYASSSSEIEEMVERATEIAGLGEKIKDRVSTYSKGMVRKLLIARALMVNPRLAILDEPTSGLDVLNAREVRKILKQASQEGLTILVSSHNMLEVEFLCDRIALIHNGTIVETGTVEELKERYKAQNIEEVFEEVVKCSENF | not soluble |
| MSLRRSKATDHQAAGPSPGPRDAFRPASVDEDVPAAVGRLLDRFLAERVARAAALDPVFAHDIAERVARFTLDGGKRTRSQFVWWAHRACGGPAAGAEAALRVGAALELIQTCALVHDDVMDGSRLRRGRPALHTDVSAQYADAVLPAPGTRFGEAAAILAGDLALAWADDVVADTDLAPDPGRRVREVWSCLRMEMVAGQYLDIQGQATSSHSEARAMRAACLKSALYSVQRPLELGAALAGADTATTQALCSAGRCVGLAFQLRDDLHDVFEEPRRTGKPSGGDIRAGKPTYLVAVARARAEAAGDRGALAVLRRSLGCADLSDADLARVRDVLVTTGARDTVEAEIDRLVAQGLRHMGAASLAPEGRRHLDALLRSAAGAPSVRRQAPDASRSENGMPVSLLLTATAEGAPEKGIITITTDPNSSSVDKLAAALEHHHHHH | soluble |
| GMGYTLAEFLAHAIALETEAAERYVELADMMEAHNNLDTATVFRDMARFSTLHGDEIKQRSRALELPKLMSWQYRWKTPPEVGDENDIHYLMTPYHALRYARDNEIRGMEYYKEAAANSADPEVKRLGADFAAEEAEHVVALDKWIEKTPRPSITWSEDADPAQCVD | soluble |
| NILKALLPTSTAGSLPKPAWLAEPETLWSPWKLQGEELTEGKHDALRLSLQDQQQAGIDIVSDGEQTRQHFVTTFIEHLNGVDFEKRKTVKIRDRYDASVPTVVGPVSRQKSVFVEDAKFLRQQTKQPIKWALPGPMTMIDTLYDDHYKSREKLAWEFAKILNQEAKELEAAGVDIIQFDEPAFNVFFDEVNDWGIACLERAIEGLNCETAVHICYGYGIKANTDWKKTLGSEWRQYEEAFPKLQKSNIDIISLECHNSHVPMELLELIRGKKVMVGAIDVASNTIETPEEVANTLRKALKFVDADKLYPCTNCGMAPLSHQVARGKLNALSAGAEIVRRELST | not soluble |
| MGSDKIHHHHHHMKQIKIGTCVPGPVAEEWLKGFVGKGFETFSLNFHMSLEGTDLDKLALSTEQILAGTDSKITTLGYYCNPIQYPEHRKTLEKVICTAEKFGATHVSTFAGAWEGKPVESAYEEFGKVFRELAELAEEKGVKLGIENCLMDGTWEHATCNIGFNPKAWEVMFEEVKNDNFGLEWEPTHQMVQLIDPVTELRKWCKKIVHVHGKDATIDWDAVRHGGISGAVPFVWHRMPGFGDTNWRDIISILRSNGYEDDICIEGYHDPVYRGELEMTGQLHALNYLKWCRGGEFTPTPWEK | not soluble |
| MGSDKIHHHHHHMALTQLEQPLSPQPTPPDLRGYEYDLVIVGGGIIGLTLASALKDSGLSILLIEAKVASAAVAKGQAYAVHQLSALIYQGIGVWDKILPQIAKYRRVRLSDADYPNVVEFTTDDIHTAELGYVAEHQALLQPLQEFVQDCPNVTYLCPAEVVNTQYQKDIVAVDIKVADQLYTVRSKLLIAADGARSPIRQAAGIKTSGWKYWQSCIVAFVKPEKPHNNTAYERFWSSGPFAILPLPENRCRIVWTAPHEEAKALCALDDEQFLAELTRRYGDQMGKLELLGDRFVFQVQLMQSDRYVLPRLALIGDAAHNCHPVGGQGLNLGIRDAAALAQVIQTAHQAGKDIGDIQILKGYERWRKLENLTILGFTDLLDRMFSNNFLPVVVVRRLGLWFLQRVPLLKVFMLKLMIGLKGRTPELAKR | not soluble |
| AHHHHHHSSGLEVLFQGPNELNYGQLSISPIFQGGSYQLNNKSIDISSLLLDKLSGESQTVVMKFKADKPNSLQALFGLSNSKAGFKNNYFSIFMRDSGEIGVEIRDAQKGINYLFSRPASLWGKHKGQAVENTLVFVSDSKDKTYTMYVNGIEVFSETVDTFLPISNINGIDKATLGAVNREGKEHYLAKGSIDEISLFNKAISDQEVSTIPLSNPFQLIFQSGDSTQANYFRIPTLYTLSSGRVLSSIDARYGGTHDSKSKINIATSYSDDNGKTWSEPIFAMKFNDYEEQLVYWPRDNKLKNSQISGSASFIDSSIVEDKKSGKTILLADVMPAGIGNNNANKADSGFKEINGHYYLKLKKNGDNDFRYTVRENGVVYNETTNKPTNYTINDKYEVLEGGKSLTVEQYSVDFDSGSLRERHNGKQVPMNVFYKDSLFKVTPTNYIAMTTSQNRGESWEQFKLLPPFLGEKHNGTYLCPGQGLALKSSNRLIFATYTSGELTYLISDDSGQTWKKSSASIPFKNATAEAQMVELRDGVIRTFFRTTTGKIAYMTSRDSGETWSKVSYIDGIQQTSYGTQVSAIKYSQLIDGKEAVILSTPNSRSGRKGGQLVVGLVNKEDDSIDWKYHYDIDLPSYGYAYSAITELPNHHIGVLFEKYDSWSRNELHLSNVVQYIDLEINDLTK | soluble |
| VPPPGTMVMVERKVGSWVDGQPIDLQRDWRSWEQLPDSLKVAVIAGEDQHFAEHHGFDLPAIQQALAHNERGGSIRGASTLSQQVAKNVFLWSGRSWLRKGLEAWFTLLIETLWTKQRILEVYLNSAEWGPGVFGAQAAARYHFGLDAERLSRTQASQLAAVLPSPLKWSAARPGPYVRQRAAWIRQQMWQLGGDDYLLRLER | not soluble |
| MGHHHHHHSHMSVMFDPDTAIYPFPPKPTPLSIDEKAYYREKIKRLLKERNAVMVAHYYTDPEIQQLAEETGGCISDSLEMARFGAKHPASTLLVAGVRFMGETAKILSPEKTILMPTLQAECSLDLGCPVEEFNAFCDAHPDRTVVVYANTSAAVKARADWVVTSSIAVELIDHLDSLGEKIIWAPDKHLGRYVQKQTGGDILCWQGACIVHDEFKTQALTRLQEEYPDAAILVHPESPQAIVDMADAVGSTSQLIAAAKTLPHQRLIVATDRGIFYKMQQAVPDKELLEAPTAGEGATCRSCAHCPWMAMNGLQAIAEALEQEGSNHEVHVDERLRERALVPLNRMLDFAATLRG | soluble |
| MTGAVCPGSFDPVTLGHVDIFERAAAQFDEVVVAILVNPAKTGMFDLDERIAMVKESTTHLPNLRVQVGHGLVVDFVRSCGMTAIVKGLRTGTDFEYELQMAQMNKHIAGVDTFFVATAPRYSFVSSSLAKEVAMLGGDVSELLPEPVNRRLRDRLNTERT | not soluble |
| MSFRIEEKIVLTASDMARLQADLQARGMVPLYPARLIRSVYFDTSGLQMFSDSEEGVLPRKKVRLRRYPEQADAGAVLETKISSVEGRFKTALPVAPETERRLLRQGHFDRDYGTLQAMVAVSYRRAYYSLDGLRITFDRDIAYARPDGQTARREAWTVCELKAPAEAPLDALHHILPVPRRRFSKFCNGVSAVIARALEHHHHHH | not soluble |
| MDIPQTKQDLELPKLAGTWHSMAMATNNISLMATLKAPLRVHITSLLPTPEDNLEIVLHRWENNSCVEKKVLGEKTENPKKFKINYTVANEATLLDTDYDNFLFLCLQDTTTPIQSMMCQYLARVLVEDDEIMQGFIRAFRPLPRHLWYLLDLKQMEEPCRF | soluble |
| MMRIAVKEFLKIRRELKTLSDIRKLPYPRGTLHCILQQKKVDSVKRKYHTFAERIPEIISYWEREKKFPKWLTLPPVMKIRLLMKGMGFSAKSINKALRNPEDVVEDEKLAEQIRKAVLSDYVYSPIAARLQRARGKLGERGLAYELEKAGIEFLTEKDLKGRFSKTPDFYFEEPVEFMGEELKWIESKALFGDPRSHDLYWKKQYSKYYEMFGNGLIVYWLGCVESIEASDGSEFKNGYRTSLLDMLLYLTDSKDESYAERLNARFIEVNEQNDVLAAEKVVDAYAEGRVLAFTDRKREVARILKNMGFDVTLGQNYLTTLTANTLCHSPTANKAISLLSSLLCLINHPNLLLSAENPASLKFLLKYLFRNLLEHHHHHH | not soluble |
